Assays:
[1] = Critical micelle formation concentration (CMC) by PNA incorporation; assay type: physicochemical; details: isotonic phosphate buffer pH 7.4, PNA incorporation
Procedure: With regard to the PEG-grafted gelatin prepared, the critical micelle formation concentration (CMC) was measured. The CMC was measured by incorporating N-phenyl-1-naphtylamine (PNA) into the micelle. Using an isotonic phosphate buffer with a pH of 7.4, various concentrations—having PEG-grafted gelatin aqueous solutions were prepared. 0.1 ml of the PNA solution dissolved in methanol having a concentration of 5.0×10^−3M was added to 2 ml of the PEG-grafted gelatin solution and stirred for 2 minutes. Thereafter, the absorbance at a wavelength of 500 nm was measured using a spectrophotometer.
With regard to the PEG-grafted succinated gelatin prepared, the critical micelle forming concentration (CMC) was measured. The CMC was measured by incorporating N-phenyl-1-naphtyl amine (PNA) into the micelle. Using an isotonic phosphate buffer with a pH of 7.4, PEG-grafted succinated gelatin aqueous solutions with various concentrations were prepared. […] Thereafter, the absorbance at a wavelength of 500 nm was measured using a spectrophotometer.
Micelle solutions were prepared in accordance with the method of Example 3 from the PEG-grafted gelatin derivatives prepared in Example 22 and the CMC of each derivative was measured in accordance with Example 5.

[2] = Micelle form by affinity column (HiTrap Blue HP) that adsorbs gelatin; assay type: physicochemical; details: pH 7.4 bonding buffer, 2M NaCl elution
Procedure: The forms of the core and the shell of micelle were studied using affinity column, which adsorbs gelatin. Namely, HiTrap (Trade Mark) Blue HP column (manufactured by Amersham Pharmacia Co., Ltd.) was washed with 10 ml of an isotonic phosphate buffer with a pH of 7.4 and thereafter, 0.5 ml of a PEG-grafted gelatin micelle solution was applied. 5 ml of the isotonic phosphate buffer with a pH of 7.4 was used as a bonding buffer and 5 ml of a 2M aqueous sodium chloride solution was used as an elution buffer. The solution was fractionated with each 0.4 ml portions and the gelatin in each of the fractions was measured by the Lowery method.
The forms of the core and the shell of the micelle was studied using affinity column in which gelatin was adsorbed. Namely, HiTrap (Trade Mark) Blue HP column (manufactured by Amersham Pharmacia Co., Ltd.) was washed with 10 ml of an isotonic phosphate buffer with a pH of 7.4 and thereafter, 0.5 ml of a PEG-grafted gelatin micelle solution was applied. 5 ml of the pH isotonic phosphate buffer with a pH of 7.4 was used as a bonding buffer and 5 ml of a 2M aqueous sodium chloride solution was used as an elution buffer. The solution was fractionated with each 0.4 ml portions and the gelatin in each fraction was measured by the Lowery method. […]

[3] = In vitro disintegration test in Japanese Pharmacopoeia first and second solutions, SDS-PAGE; assay type: physicochemical
Procedure: (§1) Of the various PEG-grafted gelatin derivatives prepared in Example 22, 50 mg of a gelatin derivative prepared by using 2-fold mols of PEG having a molecular weight of 5000 was dissolved in 1 ml of DDW (50 mg/mL). 500 μL of the resulting solution was added to 4.5 ml of each of a Japanese Pharmacopoeia first solution (pH 1.2), a second solution (pH 6.8), pepsin (10 U/mL)+first solution or trypsin (10 U/mL)+second solution and subjected to disintegration test. The test was carried out under the conditions based on Japanese Pharmacopoeia disintegration test. The decomposition of the gelatin was evaluated by carrying out SDS-PAGE of the sample prepared after the test. Further, 500 μL of the sample was added to 4.5 mL of DDW to prepare a control group.
(§2) 50 mg of gelatin, which was not subjected to PEG grafting, was dissolved in 1 ml of DDW. 500 μL of the resulting solution was added to 4.5 mL of each of DDW, first solution, second solution, pepsin+first solution and trypsin+second solution, respectively, and then, subjected to disintegration test. The test was carried out under the conditions based on Japanese Pharmacopoeia disintegration test. The decomposition of the gelatin was evaluated by carrying out SDS-PAGE of the sample prepared after the test.

pepsin = test: In vitro stability test to enzyme: pepsin + first solution, SDS-PAGE; assay type: in vitro ADME; details: pepsin (10 U/mL) + first solution
Procedure: as §1, §2

trypsin = test: In vitro stability test to enzyme: trypsin + second solution, SDS-PAGE; assay type: in vitro ADME; details: trypsin (10 U/mL) + second solution
Procedure: as §1, §2

[4] = Solubilizing of paclitaxel; assay type: physicochemical; details: 30 μL of 10 mg/ml paclitaxel in ethanol + 500 μL of 2% aqueous solution
Procedure: A 10 mg/ml ethanol solution of paclitaxel was prepared as (a PTX solution).
A 2% gelatin aqueous solution was prepared as a gelatin solution.

macrophage = test: Test of macrophage adhesion property (SEM); assay type: cell-based, mouse; details: crosslinked with heating at 160° C. for 3 hours, cultured 24 hours
Procedure: 1 g of gelatin or a derivative thereof was dissolved in 10 mL of purified water while heating. This resulting polymer solution was injected into a PFA made laboratory dish and allowed to stand at 4° C. for 12 hours to conduct gelation sufficiently. The resulting gel was lyophilized and then subjected to cross-linking treatment with heating at 160° C. for 3 hours under reduced pressure in vacuum.
First, to 10-week old female ddy mouse, 2 ml of a previously sterilized Brewer's thioglycolate medium (manufactured by Difco Co.) was administered to intraperitoneal. After 5 days, the mouse was killed with blood-letting and 5 ml of PBS(−) cooled at 4° C. was administered intraperitoneal. After 5 minutes, about 4 ml of intraperitoneal effusion was recovered and was centrifuged at 8000 revolution/min for about 5 minutes to prepare a cell mass of effused macrophage. To the cell mass, 2 ml of RPMI1640 medium containing 10% FCS was added and sufficiently suspended.
Next, a specimen prepared in accordance with “the method of preparing the specimen for evaluating adhesion of macrophage” according to the above-mentioned (1) was sufficiently swelled with a RPMI1640 medium to prepare a specimen for evaluating the adhesion property of macrophage. […] Surface observation was carried out by a scanning electron microscope (Hitachi Type S-3000N) and the adhesion of macrophage was evaluated.

gelatin
CMC (whether admitted) [1]: CMC was not admitted
adsorption to affinity column [2]: adsorbed to the affinity column
lowering of the gelatin molecular weight ([3]; Japanese Pharmacopoeia first solution (pH 1.2)): a lowering of the gelatin molecular weight was confirmed
lowering of the gelatin molecular weight ([3]; Japanese Pharmacopoeia second solution (pH 6.8)): except for the control group and the second solution, a lowering of the gelatin molecular weight was confirmed
lowering of the gelatin molecular weight (pepsin): a lowering of the gelatin molecular weight was confirmed
lowering of the gelatin molecular weight (trypsin): a lowering of the gelatin molecular weight was confirmed
appearance on mixing with paclitaxel solution [4]: white precipitation
adhesion of macrophage to the surface (macrophage): tightly covered with the cells such as macrophage
